{"source": "the supplement of paper PMC7877785", "experiment": "self-splicing fitness, log relative to wild type (ln ratio); higher = more splicing; Tetrahymena group I intron in knt gene, E. coli kanamycin selection, DiMSum; sequences stand for … in CUCUCU…GGAGGGAAAAGUUAUCAGGCAUGCACCUGGUAGCUAGUCUUUAAACCAAUAGAUUGCAUCGGUUUAAAAGGCAAGACCGUCAAAUUGCGGGAAAGGGGUCAACAGCCGUUCAGUACCAAGUCUCAGGGGAAACUUUGAGAUGGCCUUGCAAAGGGUAUGGUAAUAAGCUGACGGACAUGGUCCUAACCACGCAGCCAAGUCCUAAGUCAACAGAUCUUCUGUUGAUAUGGAUGCAGUUCACAGACUAAAUGUCGGUCGGGGAAGAUGUAUUCUUCUCAUAAGAUAUAGUCGGACCUCUCCUUAAUGGGAGCUAGCGGAUGAAGUGAUGCAACACUGGAGCCGCUGGGAACUAAUUUGUAUGCGAAAGUAUAUUGAUUAGUUUUGGAGUACUCGUGGUCG", "summary_of_the_method": "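DiMSum derived fitness as the error-weighted combination of fold changes across replicates, kanamycin versus no kanamycin, normalised to wild type. E. coli BL21(DE3) held the library, which randomised all eight P1ex-region intron nucleotides within the knt kanamycin-resistance gene on pET-22b(+). Six replicate transformations grew overnight at 37°C or 30°C on LB agar with or without 25 μg/mL kanamycin, also containing 100 μg/mL carbenicillin, 50 μM IPTG and 0.2% rhamnose, and pooled colonies were amplicon-sequenced on an Illumina HiSeq 2500.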", "note": "± gives the uncertainty stated by the source."}
{"sequence": "CGCUAGCAAUAUUACGAGUG", "values": [{"measurement": "self-splicing fitness (ln)", "setting": "30 °C", "result": "-2.91 ± 0.16"}, {"measurement": "self-splicing fitness (ln)", "setting": "37 °C", "result": "-3.22 ± 0.17"}]}
{"sequence": "CGCUAGCAAUAUUACGAUAC", "values": [{"measurement": "self-splicing fitness (ln)", "setting": "30 °C", "result": "-3.07 ± 0.21"}, {"measurement": "self-splicing fitness (ln)", "setting": "37 °C", "result": "-2.31 ± 0.16"}]}
{"sequence": "CGCUAGCAAUAUUACGAUCU", "values": [{"measurement": "self-splicing fitness (ln)", "setting": "30 °C", "result": "-0.867 ± 0.1"}, {"measurement": "self-splicing fitness (ln)", "setting": "37 °C", "result": "-1.49 ± 0.11"}]}
{"sequence": "CGCUAGCAAUAUUACGCAUG", "values": [{"measurement": "self-splicing fitness (ln)", "setting": "30 °C", "result": "-2.04 ± 0.12"}, {"measurement": "self-splicing fitness (ln)", "setting": "37 °C", "result": "-1.24 ± 0.16"}]}
{"sequence": "CGCUAGCAAUAUUACGCCGU", "values": [{"measurement": "self-splicing fitness (ln)", "setting": "30 °C", "result": "-0.129 ± 0.17"}, {"measurement": "self-splicing fitness (ln)", "setting": "37 °C", "result": "-0.719 ± 0.18"}]}
{"sequence": "CGCUAGCAAUAUUACGCGCA", "values": [{"measurement": "self-splicing fitness (ln)", "setting": "30 °C", "result": "-1.81 ± 0.17"}, {"measurement": "self-splicing fitness (ln)", "setting": "37 °C", "result": "-1.52 ± 0.17"}]}
{"sequence": "CGCUAGCAAUAUUACGCGCU", "values": [{"measurement": "self-splicing fitness (ln)", "setting": "30 °C", "result": "-3.85 ± 0.25"}, {"measurement": "self-splicing fitness (ln)", "setting": "37 °C", "result": "-2.75 ± 0.22"}]}
{"sequence": "CGCUAGCAAUAUUACGCGGU", "values": [{"measurement": "self-splicing fitness (ln)", "setting": "30 °C", "result": "-3.4 ± 0.26"}, {"measurement": "self-splicing fitness (ln)", "setting": "37 °C", "result": "-2.39 ± 0.21"}]}
{"sequence": "CGCUAGCAAUAUUACGUAUC", "values": [{"measurement": "self-splicing fitness (ln)", "setting": "30 °C", "result": "-3.84 ± 0.33"}, {"measurement": "self-splicing fitness (ln)", "setting": "37 °C", "result": "-2.76 ± 0.31"}]}
{"sequence": "CGCUAGCAAUAUUACGUCCU", "values": [{"measurement": "self-splicing fitness (ln)", "setting": "30 °C", "result": "-1.59 ± 0.15"}, {"measurement": "self-splicing fitness (ln)", "setting": "37 °C", "result": "-1.45 ± 0.17"}]}
{"sequence": "CGGAAGCAAUAUUACGAAAU", "values": [{"measurement": "self-splicing fitness (ln)", "setting": "30 °C", "result": "-3.59 ± 0.45"}, {"measurement": "self-splicing fitness (ln)", "setting": "37 °C", "result": "-2.96 ± 0.31"}]}
{"sequence": "CGGAAGCAAUAUUACGAACU", "values": [{"measurement": "self-splicing fitness (ln)", "setting": "30 °C", "result": "-1.04 ± 0.1"}, {"measurement": "self-splicing fitness (ln)", "setting": "37 °C", "result": "-0.0975 ± 0.12"}]}
{"sequence": "CGGAAGCAAUAUUACGAAUA", "values": [{"measurement": "self-splicing fitness (ln)", "setting": "30 °C", "result": "-2.53 ± 0.39"}]}
{"sequence": "CGGAAGCAAUAUUACGAGCC", "values": [{"measurement": "self-splicing fitness (ln)", "setting": "30 °C", "result": "-2.13 ± 0.23"}, {"measurement": "self-splicing fitness (ln)", "setting": "37 °C", "result": "-0.454 ± 0.22"}]}
{"sequence": "CGGAAGCAAUAUUACGCGCA", "values": [{"measurement": "self-splicing fitness (ln)", "setting": "30 °C", "result": "-1.9 ± 0.11"}, {"measurement": "self-splicing fitness (ln)", "setting": "37 °C", "result": "-1.08 ± 0.094"}]}
{"sequence": "CGGAAGCAAUAUUACGCGGA", "values": [{"measurement": "self-splicing fitness (ln)", "setting": "30 °C", "result": "-2.73 ± 0.28"}, {"measurement": "self-splicing fitness (ln)", "setting": "37 °C", "result": "-2.93 ± 0.43"}]}
{"sequence": "CGGAAGCAAUAUUACGCUCG", "values": [{"measurement": "self-splicing fitness (ln)", "setting": "30 °C", "result": "-3.42 ± 0.21"}, {"measurement": "self-splicing fitness (ln)", "setting": "37 °C", "result": "-1.97 ± 0.23"}]}
{"sequence": "CGGAAGCAAUAUUACGGACG", "values": [{"measurement": "self-splicing fitness (ln)", "setting": "30 °C", "result": "-3 ± 0.27"}, {"measurement": "self-splicing fitness (ln)", "setting": "37 °C", "result": "-2.12 ± 0.44"}]}
{"sequence": "CGGAAGCAAUAUUACGGACU", "values": [{"measurement": "self-splicing fitness (ln)", "setting": "30 °C", "result": "-0.00733 ± 0.094"}, {"measurement": "self-splicing fitness (ln)", "setting": "37 °C", "result": "-0.0682 ± 0.14"}]}
{"sequence": "CGGAAGCAAUAUUACGGAGC", "values": [{"measurement": "self-splicing fitness (ln)", "setting": "30 °C", "result": "-2.75 ± 0.26"}, {"measurement": "self-splicing fitness (ln)", "setting": "37 °C", "result": "-1.88 ± 0.36"}]}
{"sequence": "CGGAAGCAAUAUUACGGAUG", "values": [{"measurement": "self-splicing fitness (ln)", "setting": "30 °C", "result": "-2.02 ± 0.073"}, {"measurement": "self-splicing fitness (ln)", "setting": "37 °C", "result": "-0.785 ± 0.086"}]}
{"sequence": "CGGAAGCAAUAUUACGGCCU", "values": [{"measurement": "self-splicing fitness (ln)", "setting": "30 °C", "result": "0.133 ± 0.15"}, {"measurement": "self-splicing fitness (ln)", "setting": "37 °C", "result": "0.152 ± 0.16"}]}
{"sequence": "CGGAAGCAAUAUUACGGGGA", "values": [{"measurement": "self-splicing fitness (ln)", "setting": "30 °C", "result": "-3.79 ± 0.26"}, {"measurement": "self-splicing fitness (ln)", "setting": "37 °C", "result": "-2.65 ± 0.31"}]}
{"sequence": "CGGAAGCAAUAUUACGGUGA", "values": [{"measurement": "self-splicing fitness (ln)", "setting": "30 °C", "result": "-1.64 ± 0.16"}, {"measurement": "self-splicing fitness (ln)", "setting": "37 °C", "result": "-2.07 ± 0.22"}]}
{"sequence": "CGGAAGCAAUAUUACGUAAU", "values": [{"measurement": "self-splicing fitness (ln)", "setting": "30 °C", "result": "-2.35 ± 0.19"}, {"measurement": "self-splicing fitness (ln)", "setting": "37 °C", "result": "-1.23 ± 0.19"}]}
{"sequence": "CGGAAGCAAUAUUACGUCAC", "values": [{"measurement": "self-splicing fitness (ln)", "setting": "37 °C", "result": "-1.76 ± 0.4"}]}
{"sequence": "CGGAAGCAAUAUUACGUCUA", "values": [{"measurement": "self-splicing fitness (ln)", "setting": "30 °C", "result": "-0.422 ± 0.097"}, {"measurement": "self-splicing fitness (ln)", "setting": "37 °C", "result": "-0.659 ± 0.076"}]}
{"sequence": "CGGAAGCAAUAUUACGUUAA", "values": [{"measurement": "self-splicing fitness (ln)", "setting": "30 °C", "result": "-3.47 ± 0.36"}, {"measurement": "self-splicing fitness (ln)", "setting": "37 °C", "result": "-3.06 ± 0.25"}]}
{"sequence": "CGGAAGCAAUAUUACGUUCA", "values": [{"measurement": "self-splicing fitness (ln)", "setting": "30 °C", "result": "-0.293 ± 0.13"}, {"measurement": "self-splicing fitness (ln)", "setting": "37 °C", "result": "0.673 ± 0.16"}]}
{"sequence": "CGGCAGCAAUAUUACGAAGG", "values": [{"measurement": "self-splicing fitness (ln)", "setting": "30 °C", "result": "-1.13 ± 0.12"}, {"measurement": "self-splicing fitness (ln)", "setting": "37 °C", "result": "0.373 ± 0.17"}]}
{"sequence": "CGGCAGCAAUAUUACGACAU", "values": [{"measurement": "self-splicing fitness (ln)", "setting": "30 °C", "result": "-3.303 ± 0.021"}, {"measurement": "self-splicing fitness (ln)", "setting": "37 °C", "result": "-1.91 ± 0.035"}]}
{"sequence": "CGGCAGCAAUAUUACGACCG", "values": [{"measurement": "self-splicing fitness (ln)", "setting": "30 °C", "result": "-3.76 ± 0.31"}]}
{"sequence": "CGGCAGCAAUAUUACGAGCU", "values": [{"measurement": "self-splicing fitness (ln)", "setting": "30 °C", "result": "-2.8 ± 0.17"}, {"measurement": "self-splicing fitness (ln)", "setting": "37 °C", "result": "-1.55 ± 0.14"}]}
{"sequence": "CGGCAGCAAUAUUACGAGGU", "values": [{"measurement": "self-splicing fitness (ln)", "setting": "30 °C", "result": "-3.26 ± 0.19"}, {"measurement": "self-splicing fitness (ln)", "setting": "37 °C", "result": "-1.83 ± 0.15"}]}
{"sequence": "CGGCAGCAAUAUUACGAUUG", "values": [{"measurement": "self-splicing fitness (ln)", "setting": "30 °C", "result": "-0.72 ± 0.055"}, {"measurement": "self-splicing fitness (ln)", "setting": "37 °C", "result": "0.0589 ± 0.08"}]}
{"sequence": "CGGCAGCAAUAUUACGAUUU", "values": [{"measurement": "self-splicing fitness (ln)", "setting": "30 °C", "result": "-3.18 ± 0.22"}, {"measurement": "self-splicing fitness (ln)", "setting": "37 °C", "result": "-2.64 ± 0.23"}]}
{"sequence": "CGGCAGCAAUAUUACGCAUG", "values": [{"measurement": "self-splicing fitness (ln)", "setting": "30 °C", "result": "-2.27 ± 0.074"}, {"measurement": "self-splicing fitness (ln)", "setting": "37 °C", "result": "-1.05 ± 0.082"}]}
{"sequence": "CGGCAGCAAUAUUACGCGGC", "values": [{"measurement": "self-splicing fitness (ln)", "setting": "30 °C", "result": "-2.84 ± 0.27"}, {"measurement": "self-splicing fitness (ln)", "setting": "37 °C", "result": "-3.03 ± 0.26"}]}
{"sequence": "CGGCAGCAAUAUUACGCGUA", "values": [{"measurement": "self-splicing fitness (ln)", "setting": "30 °C", "result": "-1.97 ± 0.29"}, {"measurement": "self-splicing fitness (ln)", "setting": "37 °C", "result": "-0.576 ± 0.16"}]}
